PMC4777393, “Structural Basis for Recognition of Human Enterovirus 71 by a Bivalent Broadly Neutralizing Monoclonal Antibody” (PLoS Pathogens, 2016)
Residue numbers refer to the chain shown, from its start.

What was measured:
[1] = molecular target: EV71 mature virion (F-particle), inactivated; assay: ELISA; settings: read off a plot
[2] = molecular target: EV71 procapsid (E-particle), inactivated; assay: ELISA; settings: read off a plot
[3] = molecular target: EV71 virus-like particle (VLP); assay: ELISA; settings: read off a plot
[4] = molecular target: SP70 peptide (amino acid residues 208 to 222 of EV71 VP1) (UniProt Q66478); assay: ELISA; settings: read off a plot
SCARB2-Fc = SCARB2-Fc (UniProt Q14108); assay: pull-down with SCARB2-Fc and anti-human Fc IgG conjugated beads, quantified by qRT-PCR; settings: 4°C; parent: est. 100; read off a plot
Sequence of SCARB2-Fc (Q14108 whole entry): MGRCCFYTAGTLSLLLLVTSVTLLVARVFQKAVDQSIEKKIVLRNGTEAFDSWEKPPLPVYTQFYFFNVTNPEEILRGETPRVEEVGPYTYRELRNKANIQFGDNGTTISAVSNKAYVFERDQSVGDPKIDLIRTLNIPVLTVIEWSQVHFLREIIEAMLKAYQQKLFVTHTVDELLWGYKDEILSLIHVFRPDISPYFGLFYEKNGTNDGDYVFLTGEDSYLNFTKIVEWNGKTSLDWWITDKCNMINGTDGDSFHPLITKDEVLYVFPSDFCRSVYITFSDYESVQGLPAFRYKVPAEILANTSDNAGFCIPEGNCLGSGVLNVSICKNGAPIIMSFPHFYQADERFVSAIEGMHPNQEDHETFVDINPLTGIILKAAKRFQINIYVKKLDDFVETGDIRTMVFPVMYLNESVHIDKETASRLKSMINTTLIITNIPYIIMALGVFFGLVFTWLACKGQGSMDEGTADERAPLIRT

[5] = molecular target: EV71/G082 wild-type virus (enterovirus 71 strain EV71/G082)
[6] = molecular target: EV71/G082 wild-type virus (enterovirus 71 strain EV71/G082); remark: listed apart in the source
[7] = molecular target: EV71/G082 wild-type virus (enterovirus 71 strain EV71/G082); remark: listed apart in the source
[8] = molecular target: T1, EV71 mature virion (F-particle), inactivated (Enterovirus A71, strain of the …); assay: BLI; Octet RED 96; biotin-labelled inactivated F-particles on streptavidin tips; D5 IgG or Fab at 40 to 0.0128 μg/ml; kinetics buffer (PBS, 0.1% BSA, 0.02% Tween-20), room temperature; called avidities; settings: both partners purified
T1 construct: VP1 of enterovirus 71, cut product of the polyprotein; PDB 3VBS is the crystal structure fitted into the map and may be of another strain; numbers count on: the mature VP1 chain; VP2 of enterovirus 71, cut product of VP0 of the polyprotein; numbers count on: the mature VP2 chain; VP3 of enterovirus 71, cut product of the polyprotein; numbers count on: the mature VP3 chain; VP4 of enterovirus 71, …
T1 chain 1: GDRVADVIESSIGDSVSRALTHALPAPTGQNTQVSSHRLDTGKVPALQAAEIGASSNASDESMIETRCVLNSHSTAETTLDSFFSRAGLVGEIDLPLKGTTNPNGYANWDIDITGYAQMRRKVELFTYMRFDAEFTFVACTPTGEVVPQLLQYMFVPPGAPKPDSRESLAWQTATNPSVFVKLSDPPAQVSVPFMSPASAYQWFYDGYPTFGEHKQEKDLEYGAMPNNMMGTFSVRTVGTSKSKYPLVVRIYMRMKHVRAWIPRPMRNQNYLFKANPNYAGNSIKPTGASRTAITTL
T1 chain 2: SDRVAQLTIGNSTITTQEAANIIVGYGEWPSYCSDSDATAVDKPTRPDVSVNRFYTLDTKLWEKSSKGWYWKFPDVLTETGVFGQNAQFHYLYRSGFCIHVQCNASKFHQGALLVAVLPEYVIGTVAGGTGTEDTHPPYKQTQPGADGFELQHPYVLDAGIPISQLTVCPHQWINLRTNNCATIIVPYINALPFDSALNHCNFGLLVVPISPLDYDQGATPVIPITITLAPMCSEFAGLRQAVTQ
T1 chain 3: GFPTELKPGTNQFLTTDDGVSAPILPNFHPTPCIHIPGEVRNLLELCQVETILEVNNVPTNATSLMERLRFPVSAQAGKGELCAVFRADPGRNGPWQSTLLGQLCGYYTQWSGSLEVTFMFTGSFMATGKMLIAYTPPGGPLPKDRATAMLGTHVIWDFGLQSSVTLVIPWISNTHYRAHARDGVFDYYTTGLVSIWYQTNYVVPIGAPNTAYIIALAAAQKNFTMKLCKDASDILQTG

[9] = molecular target: T2, SP70 peptide (amino acid residues 208 to 222 of EV71 VP1) (Enterovirus 71; stretch identical among …); assay: ELISA; plates coated with 20 ng/well E-particle, F-particle or VLP or 100 ng/well SP70 peptide; serially diluted scFv 2 h at 37°C; detected with HRP anti-His antibody; settings: both partners purified
T2 construct: VP1 of enterovirus 71, residues 208 to 222, corresponding to the GH-loop; Q66478 is strain BrCr; numbers count on: the mature VP1 chain
T2 chain: YPTFGEHKQEKDLEY

[10] = 6.25 ng/well, parent: est. 0.52
[11] = 6.25 ng/well, parent: est. 0.83

With “D5 wild-type single-chain variable fragment (scFv-WT) D104A” the response ([1]; 400 ng/well, parent: est. 1.0) was 0.09 OD450nm, the response ([2]; 400 ng/well, parent: est. 2.1) was 0.08 OD450nm and the response ([3]; 400 ng/well, parent: est. 1.8) was 0.05 OD450nm. The response ([4]; 400 ng/well, parent: est. 3.1) was 0.05 OD450nm.

For “D5 wild-type single-chain variable fragment (scFv-WT) F103A”, the response [1, 10] was 0.18 OD450nm, the response ([1]; 25 ng/well, parent: est. 0.76) was 0.42 OD450nm and the response ([1]; 100 ng/well, parent: est. 0.88) was 0.7 OD450nm. The response ([1]; 400 ng/well, parent: est. 1.0) was 0.86 OD450nm, the response ([2]; 6.25 ng/well, parent: est. 1.8) was 0.82 OD450nm and the response ([2]; 25 ng/well, parent: est. 2.1) was 1.6 OD450nm. It also gave a response ([2]; 100 ng/well, parent: est. 2.2) of 2.2 OD450nm, a response ([2]; 400 ng/well, parent: est. 2.1) of 2.2 OD450nm and a response ([3]; 6.25 ng/well, parent: est. 1.3) of 0.48 OD450nm. It also gave a response ([3]; 25 ng/well, parent: est. 1.6) of 1.1 OD450nm, a response ([3]; 100 ng/well, parent: est. 1.8) of 1.6 OD450nm and a response ([3]; 400 ng/well, parent: est. 1.8) of 1.7 OD450nm. For the same molecule, the response [4, 11] was 0.3 OD450nm, the response ([4]; 25 ng/well, parent: est. 2.0) was 0.95 OD450nm and the response ([4]; 100 ng/well, parent: est. 3.0) was 2.2 OD450nm. For the same molecule, the response ([4]; 400 ng/well, parent: est. 3.1) was 2.7 OD450nm.

With “D5 wild-type single-chain variable fragment (scFv-WT) F105A” the response ([1]; 400 ng/well, parent: est. 1.0) was 0.12 OD450nm, the response ([2]; 400 ng/well, parent: est. 2.1) was 0.43 OD450nm and the response ([3]; 400 ng/well, parent: est. 1.8) was 0.2 OD450nm. The response ([4]; 400 ng/well, parent: est. 3.1) was 0.05 OD450nm.

In the case of “D5 wild-type single-chain variable fragment (scFv-WT) N100A”, the response [1, 10] is reported as 0.43 OD450nm, the response ([1]; 25 ng/well, parent: est. 0.76) is reported as 0.67 OD450nm and the response ([1]; 100 ng/well, parent: est. 0.88) is reported as 0.9 OD450nm. It also gave a response ([1]; 400 ng/well, parent: est. 1.0) of 1 OD450nm, a response ([2]; 6.25 ng/well, parent: est. 1.8) of 1.7 OD450nm and a response ([2]; 25 ng/well, parent: est. 2.1) of 2.1 OD450nm. It also gave a response ([2]; 100 ng/well, parent: est. 2.2) of 2.4 OD450nm, a response ([2]; 400 ng/well, parent: est. 2.1) of 2.2 OD450nm and a response ([3]; 6.25 ng/well, parent: est. 1.3) of 1.1 OD450nm. For the same molecule, the response ([3]; 25 ng/well, parent: est. 1.6) was 1.4 OD450nm, the response ([3]; 100 ng/well, parent: est. 1.8) was 1.8 OD450nm and the response ([3]; 400 ng/well, parent: est. 1.8) was 1.8 OD450nm. It also gave a response [4, 11] of 0.43 OD450nm, a response ([4]; 25 ng/well, parent: est. 2.0) of 1.3 OD450nm and a response ([4]; 100 ng/well, parent: est. 3.0) of 2.7 OD450nm. For the same molecule, the response ([4]; 400 ng/well, parent: est. 3.1) was 3 OD450nm.

For “D5 wild-type single-chain variable fragment (scFv-WT) W102A”, the response ([1]; 400 ng/well, parent: est. 1.0) was 0.1 OD450nm, the response ([2]; 400 ng/well, parent: est. 2.1) was 0.3 OD450nm and the response ([3]; 400 ng/well, parent: est. 1.8) was 0.19 OD450nm. The response ([4]; 400 ng/well, parent: est. 3.1) was 0.05 OD450nm.

Work on “D5 wild-type single-chain variable fragment (scFv-WT) Y101A” yielded a response ([1]; 400 ng/well, parent: est. 1.0) of 0.15 OD450nm, a response ([2]; 400 ng/well, parent: est. 2.1) of 0.3 OD450nm and a response ([4]; 400 ng/well, parent: est. 3.1) of 0.05 OD450nm.

With EV71/G082 wild-type virus K218E the percent of parent (SCARB2-Fc) was 65%.

EV71/G082 wild-type virus K218T was tested, and the percent of parent (SCARB2-Fc) was 84%.

B1: D5 intact IgG (antibody, V domains shown)
VH: EVQLQQSGAELVKPGASVKLSCTASGFNIKDTYIHWVKQRPEQGLEWIGKIDPANGNTKYDPKFQDKATITADTSSNTAYLQLSSLTSEDTAVYYCANSNYWFDFDYWGQGTTLTVSS
VL: DVLMTQTPLSLPVSLGDQASISCRSSQSIVHSNGNTYLEWYLQKPGQSPKLLIYKVSNRFSGVPDRFSGSGSGTDFTLKISRVEADDVGVYYCYQGSHVPYTFGGGTKLEIK
notes: variable region of the D5 heavy chain (VH, 1-118 aa); constant region of the mouse IgG heavy chain; variable region of the D5 light chain (VL, 1-113 aa); constant region of the mouse light chain; also called MAb D5; mAb D5; source: D5 hybridoma (mouse)
With B1 the IC50 of neutralization (50% inhibition of cell death, MTT assay), EV71/G082 [5] was 0.183 µg/mL, the Neutralization concentration (lowest antibody concentration that fully prevents CPE), EV71/G082 [5] was 0.313 µg/mL and the IC50 of neutralization of EV71 G082 (100 TCID50) on RD cells, standard neutralization assay, MTT [6] was 2.23 nM. It also gave an IC50 of neutralization of EV71 G082 on RD cells, post-attachment neutralization assay [7] of 10.1 nM and a Kd [8] of 6 nM.

B2: D5 scFv-N100A (scFv, V domains shown)
VH: B1 VH with N100A
VL: B1 VL
notes: variable region of the D5 heavy chain (VH, 1-118 aa), as the VH of m3 with the stated change; 11-amino acid residue (GGGGS)2G linker; variable region of the D5 light chain (VL, 1-113 aa), as the VL of m3; Point mutant of m3 in the heavy chain CDR3; source: E. coli BL21, purified from the soluble fraction (Ni-NTA)
B2: binds [9].

B3: D5 Fab (Fab, V domains shown)
VH: B1 VH
VL: B1 VL
notes: variable region of the D5 heavy chain (VH, 1-118 aa), as the heavy chain of m1; constant part of the Fab heavy chain left by papain; variable region of the D5 light chain (VL, 1-113 aa), as the light chain of m1; constant region of the mouse light chain; also called Fab of D5; D5 Fab fragment; source: papain digestion of D5 IgG, purified (Hitrap Protein G, Sephacryl S-100)
With B3 the IC50 of neutralization of EV71 G082 (100 TCID50) on RD cells, standard neutralization assay, MTT [6] was 37.4 nM, the IC50 of neutralization of EV71 G082 on RD cells, post-attachment neutralization assay [7] was 191 nM and the Kd [8] was 15 nM.

B4: D5 scFv-F103A (scFv, V domains shown)
VH: B1 VH with F103A
VL: B1 VL
notes: as for B2
B4: binds [9].

B5: D5 wild-type single-chain variable fragment (scFv-WT) (scFv, V domains shown)
VH: B1 VH
VL: B1 VL
notes: variable region of the D5 heavy chain (VH, 1-118 aa); 11-amino acid residue (GGGGS)2G linker; variable region of the D5 light chain (VL, 1-113 aa); Cloned in pET28b; also called wild-type scFv; VH-(GGGGS)2G-VL; source: E. coli BL21, purified from the soluble fraction (Ni-NTA)
B5: binds [9].
